Experimental data taken from paper PMC3560613.

B1: EfGCT (Enterococcus faecalis glycerol 3-phosphate cytidylyltransferase) (Enterococcus faecalis V583) (protein)
chain: MKKILTYGTFDLLHYGHINLLKKAKQQGDYLIVGLSTDAFNLEKKKQSYFSYEKRKQLLEAIRYVDLVIPETSWKQKVSDIAEFKIDTLVMGDDWQGAFDFLEVETTAKVLYLPRTPEVSTTQIKKELYYSE
B2: LmGCT (Listeria monocytogenes glycerol 3-phosphate cytidylyltransferase) (Listeria monocytogenes EGD-e) (protein)
chain: MKKVITYGTFDLLHWGHIHLLKRAKALGDYLIVAISSDEFNRIKHKEAYHSYEHRKLIIEAIRYVDEVIPENNWEQKRDDIEKYGIDVFVMGDDWEGEFDFLKDVCEVVYLPRTEGISTSQIKDELK

Substrate: Nc1ccn([C@@H]2O[C@H](COP(=O)(O)OP(=O)(O)OP(=O)(O)O)[C@@H](O)[C@H]2O)c(=O)n1
Test: purified protein
Conditions: 20 mM glycerol phosphate, 6 mM MgCl2, 20 mM Tris-HCl pH 8, 37°C

Protein	Km [µM]	kcat [s⁻¹]
B1	2420	1.51
B2	1520	4.15
